Target: eH1.0 (Mus musculus, UniProt P10922 1-194)
Assay: fluorescence polarization; unit inferred from the titration (0-10 uM; fitted as EC50); FP: 20 mM Tris pH 7.5, 1 mM DTT, 1 mM EDTA, room temperature, 1 h, 10 nM DNA; reconstitution: salt-gradient dialysis 2 M to 50 mM NaCl
Settings: protein: recombinant; label: 5' 6-FAM; only one strand printed (Results call it a 35-mer)

Sequence of eH1.0 (P10922 whole entry): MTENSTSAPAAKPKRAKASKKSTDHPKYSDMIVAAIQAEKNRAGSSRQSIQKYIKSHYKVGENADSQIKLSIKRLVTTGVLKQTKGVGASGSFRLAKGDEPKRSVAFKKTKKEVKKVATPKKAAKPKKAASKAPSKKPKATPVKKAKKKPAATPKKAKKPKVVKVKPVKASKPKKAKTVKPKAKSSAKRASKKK

Question: Which Kd does the source give for GCAGCTGGCACGACAGGTATGAATC (mixed) [FP 25-mer DNA] here?
Answer: Its Kd is 18.1 nM.

— paper PMC11500106, “Characterization of Medusavirus encoded histones reveals nucleosome-like structures and a unique linker histone”
